± gives the half width of the 95% confidence interval.
Columns and labels:
[1] = folding stability dG unfold from trypsin proteolysis; higher = more stable
Method in brief: (§1)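 Mini-proteins designed to be under 80 residues and free of cysteine were carried in a PA-tagged cDNA display construct and digested with trypsin and with chymotrypsin. Each protease was applied at 11 threefold-diluted concentrations, alongside a no-protease condition, before sequencing. K50 came from Bayesian fitting of the sequencing counts, and unfolding free energy was obtained by comparing it with a sequence-predicted unfolded-state K50 and a shared folded-state K50, for each protease separately or for both together. Designs were retained only if their AlphaFold2 dimer inter-PAE exceeded 15.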

[2] = folding stability dG unfold (combined trypsin and chymotrypsin); higher = more stable
Method in brief: as §1

[3] = folding stability dG unfold from chymotrypsin proteolysis; higher = more stable
Method in brief: as §1

Row | Sequence | folding stability dG unfold [1] [kcal/mol] | folding stability dG unfold [2] [kcal/mol] | folding stability dG unfold [3] [kcal/mol]
1 | SGEPVIVKITFPDGTVLEIEFEGTPEEVKEAVEEEIKEYAKKHGLKPGEFKVEVIKAGDKTKETYTIKVESA [r9_1193_TrMRF] | 1.5 ± 0.098 | 1.87 ± 0.15 | 2.03 ± 0.071
2 | SMGMTPEEYILELVREALAADPDAAVTIDHDDIVRNTPNPISKEEIEKLAKEKTGVEDLTVTETPPDVPPSA [r9_738_JUSTAS] | 0.18 ± 0.023 | 0.265 ± 0.061 | 0.252 ± 0.054
3 | SAGGSAMVVTVPASSLTPESIRALARENPGPVELVFPEEGRRVTVEVRGDGVVRVEEHPLDPAELASAGGSA [r15_751_JUSTAS] | -1.07 ± 0.19 | -0.621 ± 0.083 | -0.536 ± 0.1
4 | SAGKKVKKITLTIKNKETGEYYKAEVIENENGEKYIKIINKKTGKIYIFKIKDGKIEPVKEISLKDIKPSAG [r5_619_TrROS_Hall] | 1.85 ± 0.067 | 2.83 ± 0.2 | 3.11 ± 0.053
5 | SMKILNDPNIKKVIPVFLMLMSPEEFKKLAEKLANGIKKELEEKGFPIPKDIEIKIIPFKSPEELKKALKSA [r9_204_TrMRF] | 1.29 ± 0.039 | 1.93 ± 0.14 | 2.31 ± 0.11
6 | SAGGSSSVGVDSSDPEKTKEAILKAYGTDAEPVFTTDPATGRLTITVPETGDVHTVTAGTRTETAASAGGSA [r2_205_JUSTAS] | 1.27 ± 0.042 | 0.801 ± 0.085 | 0.224 ± 0.068
7 | SPTQTITLTLPDRPVTVPLTAYPETGYVEITVTVTYPTGTKTYTFTVKAKSFEEVLAELSKLPEDFDINPSA [r9_713_TrMRF] | 1.83 ± 0.073 | 1.85 ± 0.052 | 1.81 ± 0.088
8 | SAGGSAGGSMKVVKILSIETKAEKDEEVLTIPVLDPANGKVITLTVSPEVAKTITTDDEIELLSAGGSAGGS [r12_382_JUSTAS] | 0.177 ± 0.14 | 0.47 ± 0.14 | 0.517 ± 0.12
9 | SAGGSAIKVSTSPSDVSVSKVPLPNGETLTIEVSSNGETTVTKTSPTPGTPTTTTVPGASVEELLESAGGSA [r15_406_JUSTAS] | 0.331 ± 0.034 | 0.762 ± 0.031 | 0.974 ± 0.02
10 | SAGGKPKKTILIPLIVPPGKPESAIKALAEFLEAKGYELERIEPVPVGDRLRLVAIFRKPDGTEIKVGSAGG [r13_421_TrMRF] | 1.66 ± 0.037 | 1.78 ± 0.069 | 1.9 ± 0.11
11 | SAGGAMVPVNFTLKFTYTNPDGTPVFREKPVTLPFPESDPAAAEAAARARAEAEAAARGVEVDLEVSLSAGG [r13_853_JUSTAS] | 0.0284 ± 0.12 | 0.193 ± 0.11 | 0.219 ± 0.22
12 | SAGMLTYRFTVPAEEAEEAAEELAETLRRELGLPEEVKVEVKVVEYDPETGLVTVEAVVYRPLPEGVEPSAG [r5_537_TrMRF] | 4.21 ± 0.16 | 4.5 ± 0.14 | 4.44 ± 0.11
13 | SAGGSAGGSAGGSSSSSITTEERPVDEDSVEKTFKFPDYYVVETLDPRTGRTSVSFIPVSAGGSAGGSAGGS [r4_99_JUSTAS] | 0.756 ± 0.021 | 0.533 ± 0.072 | 0.249 ± 0.041
14 | SAGGSAGGSAGMTLEELERLGYKVEVFRHPDTPEVYVRVEYPVPPGGLKRAVIPLKDVKLSAGGSAGGSAGG [r17_311_TrMRF] | -1.35 ± 0.52 | 0.499 ± 0.039 | 0.93 ± 0.077
15 | SAGGSAGGSAVETLVTYEVPEDLPPDSLSPEAVIARFAPLGVPTEVVEIDPATGTVTVRTLVPSAGGSAGGS [r12_733_JUSTAS] | -0.377 ± 0.13 | 0.664 ± 0.047 | 1 ± 0.037
16 | SAGGSGMVITIPVELPTPRTLTFTFYPETGTATVEVSPGVPAAEVRATVEEVFAAHGLKLNPITLLSAGGSA [r2_497_JUSTAS] | 0.995 ± 0.02 | 1.39 ± 0.066 | 1.61 ± 0.075
17 | SAGGSADGRVVELPVRIRLYRRDPVSGRWELVEEFEVPVRVPAPKDAVVGLRIERRGDRFRIVVGVSAGGSA [r15_537_TrMRF] | 2.74 ± 0.08 | 3.25 ± 0.07 | 3.537 ± 0.019
